Reference: publication PMC8991199, “Promiscuity mapping of the S100 protein family using a high-throughput holdup assay” (Scientific Reports, 2022)

Tests used:
Experiment in all cases: fluorescence polarisation; direct FP: S100 protein diluted in 50 nM labeled foldamer, 20 mM HEPES pH 7.5, 150 mM NaCl, 1 mM CaCl2, 0.5 mM TCEP, 0.01% Tween20; quadratic fit (ProFit); detection threshold Kd 1 mM
[1] = target: fRF, fluorescently labelled H14 foldamer RF
[2] = target: fRR, fluorescently labelled H14 foldamer RR
[3] = target: fYF, fluorescently labelled H14 foldamer YF
[4] = target: fWW, fluorescently labelled H14 foldamer WW
[5] = target: fTM, fluorescently labelled H14 foldamer TM
[6] = target: fIL, fluorescently labelled H14 foldamer IL
[7] = target: fWL, fluorescently labelled H14 foldamer WL
[8] = target: fVL, fluorescently labelled H14 foldamer VL
[9] = target: fIF, fluorescently labelled H14 foldamer IF
[10] = target: fTW, fluorescently labelled H14 foldamer TW
[11] = target: fTI, fluorescently labelled H14 foldamer TI

Measured: Kd

B1: S100A9 (natural protein)
chain: MTCKMSQLERNIETIINTFHQYSVKLGHPDTLNQGEFKELVRKDLQNFLKKENKNEKVIEHIMEDLDTNADKQLSFEEFIMLMARLTWASHEKMHEGDEGPGHHHKPGLGEGTP
> 1 mM: [1] | [2] | [3] | [4] | [5] | [6] | [7] | [8] | [9] | [10] | [11]
